According to IntAct's records for PubMed 21658387:

Tests used:
mbp_bovin MBP [1] = biological target: mbp_bovin MBP (UniProt P02687)
akt1_human AKT1 [2] = biological target: akt1_human AKT1 (UniProt P31749)
akt1_human AKT1 [3] = biological target: akt1_human AKT1 (UniProt P31749); remark: listed apart in the source
mbp_bovin MBP [4] = biological target: mbp_bovin MBP (UniProt P02687); remark: listed apart in the source
akt1_human AKT1 [5] = biological target: akt1_human AKT1 (UniProt P31749); remark: listed apart in the source

Sequence of akt1_human AKT1 (P31749 whole entry): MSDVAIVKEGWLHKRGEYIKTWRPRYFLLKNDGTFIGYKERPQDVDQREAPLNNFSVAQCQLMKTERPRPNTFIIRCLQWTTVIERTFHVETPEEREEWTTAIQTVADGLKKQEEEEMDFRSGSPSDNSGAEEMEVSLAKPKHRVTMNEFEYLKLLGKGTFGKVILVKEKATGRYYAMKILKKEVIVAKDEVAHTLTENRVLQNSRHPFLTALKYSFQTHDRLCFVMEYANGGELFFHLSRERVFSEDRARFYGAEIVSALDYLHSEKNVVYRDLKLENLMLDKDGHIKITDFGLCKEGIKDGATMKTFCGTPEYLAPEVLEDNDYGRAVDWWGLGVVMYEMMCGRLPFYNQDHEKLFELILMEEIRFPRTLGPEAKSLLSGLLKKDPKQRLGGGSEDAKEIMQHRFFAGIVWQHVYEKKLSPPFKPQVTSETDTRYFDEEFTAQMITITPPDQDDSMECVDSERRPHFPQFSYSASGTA
Sequence of mbp_bovin MBP (P02687 whole entry): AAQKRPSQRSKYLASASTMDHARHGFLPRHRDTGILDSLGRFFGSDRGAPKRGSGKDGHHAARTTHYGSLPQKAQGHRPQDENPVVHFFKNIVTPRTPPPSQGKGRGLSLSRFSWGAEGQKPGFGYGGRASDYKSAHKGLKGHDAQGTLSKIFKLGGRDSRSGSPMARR

Leucine-rich repeat serine/threonine-protein kinase 2 (Homo sapiens), Q5S007 I2020T
effect of a mutation on the interaction (mbp_bovin MBP [1]): increasing interaction | effect of a mutation on the interaction (akt1_human AKT1 [2]): decreasing interaction

Leucine-rich repeat serine/threonine-protein kinase 2 (Homo sapiens), Q5S007 G2019S
effect of a mutation on the interaction (akt1_human AKT1 [3]): decreasing interaction | effect of a mutation on the interaction (mbp_bovin MBP [4]): increasing interaction

Leucine-rich repeat serine/threonine-protein kinase 2 (Homo sapiens), Q5S007 R1441C
effect of a mutation on the interaction (akt1_human AKT1 [5]): decreasing interaction
